Biological target: the molecule itself
Assay: crystal structure; sitting-drop vapour diffusion at 25°C, 0.1 M HEPES pH 7.5, 10% glycerol, 25% PEG 400, 7% PEG 3000; crystals soaked with 1 mM ISPP and 1 mM GSPP for 6 h; 1.55 Å, space group P212121, one dimer in the asymmetric unit

B1: Decaprenyl diphosphate synthase from Mycobacterium tuberculosis (enzyme)
chain: MARDARKRTSSNFPQLPPAPDDYPTFPDTSTWPVVFPELPAAPYGGPCRPPQHTSKAAAPRIPADRLPNHVAIVMDGNGRWATQRGLARTEGHKMGEAVVIDIACGAIELGIKWLSLYAFSTENWKRSPEEVRFLMGFNRDVVRRRRDTLKKLGVRIRWVGSRPRLWRSVINELAVAEEMTKSNDVITINYCVNYGGRTEITEATREIAREVAAGRLNPERITESTIARHLQRPDIPDVDLFLRTSGEQRSSNFMLWQAAYAEYIFQDKLWPDYDRRDLWAACEEYASRTRRFGSA
notes: also called MtDPPS; Rv2361c
For B1, the “stoichiometry N” value was 2.
